Experimental data published in PMC2367712.
“And” between values parts separate entries of the source, which are not always exact repeats. Equal entries are not always repeated.

Target: M. tuberculosis Lsr2 R86A mutant protein (M. tuberculosis)
Assay: cross-linking

**Q.** How did the stoichiometry N turn out when “M. tuberculosis Lsr2 R86A mutant protein (natural protein)” was run?
**A.** 2 and 4
